B1: KIAA1614 peptide 568-583 (uncharacterized protein KIAA1614), 16-mer library wild type / USP8 rhodanese domain (ubiquitin carboxyl-terminal hydrolase 8, residues 174-317) (parent)
chain 1: GMERVLGGLSSPLRLL
chain 2: KCETKEKGAITAKELYTMMTDKNISLIIMDARRMQDYQDSCILHSLSVPEEAISPGVTASWIEAHLPDDSKDTWKKRGNVEYVVLLDWFSSAKDLQIGTTLRSLKDALFKWESKTVLRNEPLVLEGGYENWLLCYPQYTTNAKV

Variants of: B1
Assay: peptide-phage display deep mutational scan (M13, 16-mer library, displayed with a C-terminal GGGSG linker encoded by the 3' flank) selected against the GST-tagged USP8 rhodanese domain, four rounds; NGS counts summed over selection …
Conditions: with USP8 rhodanese domain (ubiquitin carboxyl-terminal hydrolase 8, residues 174-317), 10 µg GST-bait on MaxiSorp, pre-cleared on GST, 2 h at 4 °C, five washes with 0.05% Tween 20 in PBS, not graded, scale: average over two replicas of the peptide's fractional NGS count
With chain 1 V5A the screen value was 0.000433. With chain 1 V5R the screen value was 0.000121. For chain 1 V5T, the screen value was 0.0104. For chain 1 S11D, the screen value was 0.0401. Work on chain 1 S11N yielded a screen value of 0.0195. chain 1 R4N was tested, and the screen value was 1.9e-05. With chain 1 L6S the screen value was 6.32e-06. chain 1 R14A was tested, and the screen value was 0.00719. In the case of chain 1 R14M, the screen value is reported as 0.0219. chain 1 R14Q showed a screen value of 3.44e-05. Variant chain 1 G7H has a screen value of 0.000322. chain 1 G7S showed a screen value of 0.000797. With chain 1 G7R the screen value was 0.00011. Work on chain 1 G7E yielded a screen value of 0.00446. With chain 1 L13T the screen value was 0.00145. Variant chain 1 L13F has a screen value of 3.09e-05. chain 1 L13H showed a screen value of 2.53e-05. With chain 1 L13V the screen value was 0.000364. Work on chain 1 L13E yielded a screen value of 0.000467. For chain 1 G8N, the screen value was 1.26e-05. Work on chain 1 M2W yielded a screen value of 0.000604. For chain 1 M2P, the screen value was 0.0198. chain 1 M2A gave a screen value of 0.00538. For chain 1 E3H, the screen value was 0.00012. chain 1 E3V was tested, and the screen value was 1.26e-05. Work on chain 1 L16V yielded a screen value of 5.05e-05. Variant chain 1 L16M has a screen value of 0.00379. chain 1 L16G showed a screen value of 6.32e-06. Work on chain 1 G1R yielded a screen value of 0.000532. chain 1 G1M gave a screen value of 0.000324. chain 1 G1F showed a screen value of 6.32e-06. chain 1 G1W showed a screen value of 0.00137. chain 1 G1T gave a screen value of 0.00523. Work on chain 1 G1E yielded a screen value of 0.000708. chain 1 G1S showed a screen value of 0.00457. With chain 1 L9N the screen value was 0.00178. chain 1 L9S showed a screen value of 0.000763. For chain 1 L9H, the screen value was 4.07e-05. Variant chain 1 S10H has a screen value of 0.00191.
